First the molecules themselves.
B1: Serrate (Drosophila), expression construct Ser-mtn (ligand, UniProt P18168 83-1407, looked up)
chain: AGNFELEILEISNTNSHLLNGYCCGMPAELRATKTIGCSPCTTAFRLCLKEYQTTEQGASISTGCSFGNATTKILGGSSFVLSDPGVGAIVLPFTFRWTKSFTLILQALDMYNTSYPDAERLIEETSYSGVILPSPEWKTLDHIGRNARITYRVRVQCAVTYYNTTCTTFCRPRDDQFGHYACGSEGQKLCLNGWQGVNCEEAICKAGCDPVHGKCDRPGECECRPGWRGPLCNECMVYPGCKHGSCNGSAWKCVCDTNWGGILCDQDLNFCGTHEPCKHGGTCENTAPDKYRCTCAEGLSGEQCEIVEHPCATRPCRNGGTCTLKTSNRTQAQVYRTSHGRSNMGRPVRRSSSMRSLDHLRPEGQALNGSSSPGLVSLGSLQLQQQLAPDFTCDCAAGWTGPTCEINIDECAGGPCEHGGTCIDLIGGFRCECPPEWHGDVCQVDVNECEAPHSAGIAANALLTTTATAIIGSNLSSTALLAALTSAVASTSLAIGPCINAKECRNQPGSFACICKEGWGGVTCAENLDDCVGQCRNGATCIDLVNDYRCACASGFKGRDCETDIDECATSPCRNGGECVDMVGKFNCICPLGYSGSLCEEAKENCTPSPCLEGHCLNTPEGYYCHCPPDRAGKHCEQLRPLCSQPPCNEGCFANVSLATSATTTTTTTTTATTTRKMAKPSGLPCSGHGSCEMSDVGTFCKCHVGHTGTFCEHNLNECSPNPCRNGGICLDGDGDFTCECMSGWTGKRCSERATGCYAGQCQNGGTCMPGAPDKALQPHCRCAPGWTGLFCAEAIDQCRGQPCHNGGTCESGAGWFRCVCAQGFSGPDCRINVNECSPQPCQGGATCIDGIGGYSCICPPGRHGLRCEILLSDPKSACQNASNTISPYTALNRSQNWLDIALTGRTEDDENCNACVCENGTSRCTNLWCGLPNCYKVDPLSKSSNLSGVCKQHEVCVPALSETCLSSPCNVRGDCRALEPSRRVAPPRLPAKSSCWPNQAVVNENCARLTILLALERVGKGASVEGLCSLVRVLLAAQLIKKPASTFGQDPGMLMVLCDLKTGTNDTVELTVSSSKLNDPQLPVAVGLLGELLSFRQLNGIQRRKELELQHAKLAALTSIVEVKLETARVADGSGHSLLIGVLCGVFIVLVGFSVFISLYWKQRLAYRTSSGMNLTPSLDALRHEEEKSNNLQNEENLRRYTNPLKGSTSSLRAATGMELSLNPAPELAASAASSSALHRSQPLFPPCDFERELDSSTGLKQAHKRSSQILLHKTQNSDMRKNTVGSLDSPRKDFGKRSINCKSMPPSSGDEGSDVLATTVMV
notes: whole, on cells
B2: Delta (Drosophila), expression construct pMTDl1 (ligand)
chain: QVHSSGSFELRLKYFSNDHGRDNEGRCCSGESDGATGKCLGSCKTRFRVCLKHYQATIDTTSQCTYGDVITPILGENSVNLTDAQRFQNKGFTNPIQFPFSFSWPGTFSLIVEAWHDTNNSGNARTNKLLIQRLLVQQVLEVSSEWKTNKSESQYTSLEYDFRVTCDLNYYGSGCAKFCRPRDDSFGHSTCSETGEIICLTGWQGDYCHIPKCAKGCEHGHCDKPNQCVCQLGWKGALCNECVLEPNCIHGTCNKPWTCICNEGWGGLYCNQDLNYCTNHRPCKNGGTCFNTGEGLYTCKCAPGYSGDDCENEIYSCDADVNPCQNGGTCIDEPHTKTGYKCHCANGWSGKMCEEKVLTCSDKPCHQGICRNVRPGLGSKGQGYQCECPIGYSGPNCDLQLDNCSPNPCINGGSCQPSGKCICPAGFSGTRCETNIDDCLGHQCENGGTCIDMVNQYRCQCVPGFHGTHCSSKVDLCLIRPCANGGTCLNLNNDYQCTCRAGFTGKDCSVDIDECSSGPCHNGGTCMNRVNSFECVCANGFRGKQCDEESYDSVTFDAHQYGATTQARADGLTNAQVVLIAVFSVAMPLVAVIAACVVFCMKRKRKRAQEKDDAEARKQNEQNAVATMHHNGSGVGVALASASLGGKTGSNSGLTFDGGNPNIIKNTWDKSVNNICASAAAAAAAAAAADECLMYGGYVASVADNNNANSDFCVAPLQRAKSQKQLNTDPTLMHRGSPAGSSAKGASGGGPGAAEGKRISVLGEGSYCSQRWPSLAAAGVAGACSSQLMAAASAAGSGAGTAQQQRSVVCGTPHM
notes: also called Delta+ cells; L49-6-7 stably transformed Delta expressing cell line

In data set [1] the target is Delta (Drosophila), expression construct pMTDl1 (Drosophila) (UniProt P10041). Put plainly: S2 cell aggregation at 4 C, 1-2 hr, Notch+ cells pretreated with preimmune mouse sera (control; one of three experiments).
For data set [2] the target is unchanged. The data set is described as follows: S2 cell aggregation, 48 hr.
For data set [3] the target is unchanged. The data set is described as follows: S2 cell aggregation, 24 hr.
Data set [4] deals with Notch (Drosophila), full length Notch expression construct #1 pMtNMg (Drosophila) (UniProt P07207). The data set is described as follows: S2 cell aggregation, 24 hr, Notch+ cells alone.
Data set [5] deals with the molecule itself. The data set is described as follows: S2 cell aggregation assay. The text has this:
(§1) FIG. 2. Notch Expression Constructs and the Deletion Mapping of the Delta/Serrate Binding Domain. S2 cells in log phase growth were transiently transfected with the series of expression constructs shown; the drawings represent the predicted protein products of the various Notch deletion mutants created. All expression constructs were derived from construct #1 pMtNMg. Transiently transfected cells were mixed with Delta expressing cells from the stably transformed line L49-6-7 or with transiently transfected Serrate expressing cells, induced with CuSO₄, incubated under aggregation conditions and then scored for their ability to aggregate using specific antisera and immunofluorescence microscopy. Aggregates were defined as clusters of four or more cells containing both Notch and Delta/Serrate expressing cells. The values given for % Aggregation refer to the percentage of all Notch expressing cells found in such clusters either with Delta (Dl) (left column) or with Serrate (Ser) (right column). The various Notch deletion constructs are represented diagrammatically with splice lines indicating the ligation junctions. Each EGF repeat is denoted as a stippled rectangular box and numbers of the EGF repeats on either side of a ligation junction are noted. At the ligation junctions, partial EGF repeats produced by the various deletions are denoted by open boxes and closed brackets (for example see #23 ΔCla+EGF(10-12)). Constructs #3-13 represent the ClaI deletion series. As diagrammed, four of the ClaI sites, in repeats 7, 9, 17 and 26, break the repeat in the middle, immediately after the third cysteine (denoted by open box repeats; see FIG. 3 for further clarification), while the fifth and most 3′ site breaks neatly between EGF repeats 30 and 31 (denoted by closed box repeat 31; again see FIG. 3). In construct #15 split, EGF repeat 14 which carries the split point mutation, is drawn as a striped box. In construct #33 ΔCla+XEGF(10-13), the Xenopus Notch derived EGF repeats are distinguished from Drosophila repeats by a different pattern of shading. […]

The target of data set [6] is B1. Put plainly: S2 cell aggregation assay.
Excerpt: as §1

Data set [7] addresses T1, Notch (Drosophila), full length Notch expression construct #1 pMtNMg (Drosophila, UniProt P07207 53-2703).
T1 construct: whole, on cells; also called intact Notch; Notch+ cells
Put plainly: S2 cell aggregation assay.
Excerpt: as §1

These results are taken from US20050112121A1 (YALE UNIVERSITY, published 2005).

T1 sequence (P07207 53-2703): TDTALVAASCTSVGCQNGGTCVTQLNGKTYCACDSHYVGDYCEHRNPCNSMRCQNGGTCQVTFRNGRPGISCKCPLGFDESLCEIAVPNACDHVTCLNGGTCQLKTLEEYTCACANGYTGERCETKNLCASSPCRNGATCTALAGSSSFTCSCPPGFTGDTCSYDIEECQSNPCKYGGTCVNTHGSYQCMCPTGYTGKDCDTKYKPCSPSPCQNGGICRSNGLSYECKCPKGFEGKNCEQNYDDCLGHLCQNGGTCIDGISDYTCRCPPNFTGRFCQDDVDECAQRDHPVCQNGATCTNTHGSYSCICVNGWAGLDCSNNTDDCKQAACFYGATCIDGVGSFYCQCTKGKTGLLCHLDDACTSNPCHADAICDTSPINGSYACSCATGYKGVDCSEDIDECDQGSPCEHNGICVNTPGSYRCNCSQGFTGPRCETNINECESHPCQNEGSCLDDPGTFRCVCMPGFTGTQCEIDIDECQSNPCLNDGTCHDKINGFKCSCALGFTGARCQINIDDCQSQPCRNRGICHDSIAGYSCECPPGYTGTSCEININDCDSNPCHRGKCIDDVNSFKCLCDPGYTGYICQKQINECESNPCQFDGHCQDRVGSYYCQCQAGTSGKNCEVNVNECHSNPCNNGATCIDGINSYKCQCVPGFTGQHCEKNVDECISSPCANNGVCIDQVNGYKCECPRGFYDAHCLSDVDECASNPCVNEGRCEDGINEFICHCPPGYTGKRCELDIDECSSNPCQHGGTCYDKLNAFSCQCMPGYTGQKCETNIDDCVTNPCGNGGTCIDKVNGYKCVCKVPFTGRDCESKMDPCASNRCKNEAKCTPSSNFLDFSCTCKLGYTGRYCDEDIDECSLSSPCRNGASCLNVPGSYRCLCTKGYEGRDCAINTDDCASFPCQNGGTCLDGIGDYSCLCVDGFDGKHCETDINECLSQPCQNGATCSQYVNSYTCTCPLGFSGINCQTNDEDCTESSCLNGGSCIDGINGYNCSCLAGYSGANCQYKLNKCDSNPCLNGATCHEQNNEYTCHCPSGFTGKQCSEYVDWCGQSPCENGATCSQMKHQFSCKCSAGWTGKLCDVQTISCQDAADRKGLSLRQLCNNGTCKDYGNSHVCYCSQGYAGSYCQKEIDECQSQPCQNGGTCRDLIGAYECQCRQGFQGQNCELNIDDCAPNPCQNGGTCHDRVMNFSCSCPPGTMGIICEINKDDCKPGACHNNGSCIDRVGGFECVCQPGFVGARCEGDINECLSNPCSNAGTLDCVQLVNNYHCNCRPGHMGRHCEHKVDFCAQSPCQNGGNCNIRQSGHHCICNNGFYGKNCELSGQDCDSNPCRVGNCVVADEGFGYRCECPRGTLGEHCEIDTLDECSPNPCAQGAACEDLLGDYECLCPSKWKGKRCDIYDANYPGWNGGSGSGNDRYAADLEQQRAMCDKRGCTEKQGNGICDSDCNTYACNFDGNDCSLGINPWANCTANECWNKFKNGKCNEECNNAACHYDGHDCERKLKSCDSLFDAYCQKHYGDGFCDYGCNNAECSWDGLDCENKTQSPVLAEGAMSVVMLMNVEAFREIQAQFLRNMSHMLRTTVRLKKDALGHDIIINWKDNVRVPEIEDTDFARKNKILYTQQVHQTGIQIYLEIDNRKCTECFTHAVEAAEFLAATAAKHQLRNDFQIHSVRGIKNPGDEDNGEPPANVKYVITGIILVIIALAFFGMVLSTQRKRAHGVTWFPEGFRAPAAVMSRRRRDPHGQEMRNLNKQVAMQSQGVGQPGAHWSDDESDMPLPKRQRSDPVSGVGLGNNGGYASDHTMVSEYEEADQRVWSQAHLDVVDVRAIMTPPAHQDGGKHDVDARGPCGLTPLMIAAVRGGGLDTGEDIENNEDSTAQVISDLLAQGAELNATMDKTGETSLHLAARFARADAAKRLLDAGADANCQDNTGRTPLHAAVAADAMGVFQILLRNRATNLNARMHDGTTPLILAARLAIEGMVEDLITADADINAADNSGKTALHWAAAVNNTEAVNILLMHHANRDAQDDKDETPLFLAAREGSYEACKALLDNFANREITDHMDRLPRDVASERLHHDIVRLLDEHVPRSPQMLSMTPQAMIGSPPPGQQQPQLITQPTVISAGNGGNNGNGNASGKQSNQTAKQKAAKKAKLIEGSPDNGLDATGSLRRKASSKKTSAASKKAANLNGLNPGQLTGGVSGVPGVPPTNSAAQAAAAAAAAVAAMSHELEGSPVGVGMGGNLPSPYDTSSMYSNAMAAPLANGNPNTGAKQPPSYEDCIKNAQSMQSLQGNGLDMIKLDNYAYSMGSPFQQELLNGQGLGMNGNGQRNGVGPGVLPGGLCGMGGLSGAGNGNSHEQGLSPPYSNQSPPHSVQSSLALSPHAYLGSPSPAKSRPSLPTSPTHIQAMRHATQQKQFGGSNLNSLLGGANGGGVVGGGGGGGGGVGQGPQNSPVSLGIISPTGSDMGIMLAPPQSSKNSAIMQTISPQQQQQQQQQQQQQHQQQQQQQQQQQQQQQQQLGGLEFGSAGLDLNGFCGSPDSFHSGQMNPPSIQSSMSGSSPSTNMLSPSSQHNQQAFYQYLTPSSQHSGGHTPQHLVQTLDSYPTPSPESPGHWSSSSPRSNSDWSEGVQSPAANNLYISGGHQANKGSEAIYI

For “Notch (Drosophila), full length Notch expression construct #1 pMtNMg, P07207 53-2703”, the % of Notch+ cells in Notch+-Delta+ cell aggregates in data set [1] is 23%. The molecule further had a degree of aggregation in data set [2] of 63 to 71%. Moreover, the fraction of expressing cells found in clusters of four or more stained cells was 32 to 54% in data set [3] and -0 to 5% in data set [4].

On to B1, for which the binding result in data set [5] is “no binding”.

Regarding B2, the binding result is given as “no binding” in data set [6] and “binds” in data set [7].
